These results are taken from PMC9352680, “A comprehensive thermodynamic model for RNA binding by the Saccharomyces cerevisiae Pumilio protein PUF4”.

Where a chain is given by its changes, count along the chain named. In names and notes the source's numbering stands.

T1: PUF4 RNA-binding domain (Saccharomyces cerevisiae, UniProt P25339 537-888)
T1 sequence: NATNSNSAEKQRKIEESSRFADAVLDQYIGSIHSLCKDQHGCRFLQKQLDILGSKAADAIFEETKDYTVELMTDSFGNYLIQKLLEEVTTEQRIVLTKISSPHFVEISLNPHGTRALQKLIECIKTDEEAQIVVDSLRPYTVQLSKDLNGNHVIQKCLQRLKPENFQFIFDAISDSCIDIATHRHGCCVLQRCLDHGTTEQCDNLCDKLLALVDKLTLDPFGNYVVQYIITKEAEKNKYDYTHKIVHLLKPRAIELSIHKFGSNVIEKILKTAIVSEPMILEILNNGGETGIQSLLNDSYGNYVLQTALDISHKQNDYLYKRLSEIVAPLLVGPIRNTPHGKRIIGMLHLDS

B1: Id_ii_S2_P4E.3_K4.2_C4.2_[C-2T]_H4.2_A4.1_F4.1_T4.2_[G10C] (ssRNA)
RNA: UUUGAUUAAUAUGAUAUCGUUCUUUCUUUUAUAUAUUACUUUCUUUCUCGAUAUCAUAUUAAUCUUU
B2: Id_ii_S2_P4E.3_K4.2_C4.2_[C-2A]_[T-1A]_H4.2_A4.1_F4.1_T4.2_[G10A]_[T11G] (ssRNA)
RNA: B1 RNA with U28A, U29A, C39A, U40G
B3: Id_ii_S2_P4E.3_K4.2_C4.2_[C-2A]_[T-1G]_H4.2_A4.1_F4.1_T4.2_[G10T]_[T11C] (ssRNA)
RNA: B1 RNA with U28A, U29G, C39U, U40C
B4: Id_ii_S2_P4E.3_K4.2_C4.2_[C-2A]_H4.2_A4.1_F4.1_T4.2_[G10T]_[T11C] (ssRNA)
RNA: B1 RNA with U28A, C39U, U40C
B5: Id_ii_S2_P4E.3_K4.2_C4.2_[C-2T]_H4.2_A4.1_F4.1_T4.2_[G10T]_[T11G] (ssRNA)
RNA: B1 RNA with C39U, U40G
B6: Id_ii_S2_P4E.3_K4.2_C4.2_[C-2A]_H4.2_A4.1_F4.1_T4.2_[G10C]_[T11A] (ssRNA)
RNA: B1 RNA with U28A, U40A
B7: Id_ii_S2_P4E.3_K4.2_C4.2_[C-2A]_[T-1C]_H4.2_A4.1_F4.1_T4.2_[G10C]_[T11C] (ssRNA)
RNA: B1 RNA with U28A, U29C, U40C
B8: Id_ii_S2_P4E.3_K4.2_C4.2_[C-2A]_[T-1G]_H4.2_A4.1_F4.1_T4.2_[G10A]_[T11A] (ssRNA)
RNA: B1 RNA with U28A, U29G, C39A, U40A
B9: Id_ii_S2_P4E.3_K4.2_C4.2_[T-1G]_H4.2_A4.1_F4.1_T4.2_[G10T] (ssRNA)
RNA: B1 RNA with U28C, U29G, C39U
B10: Id_ii_S2_P4E.3_K4.2_C4.2_[C-2A]_[T-1A]_H4.2_A4.1_F4.1_T4.2_[G10T] (ssRNA)
RNA: B1 RNA with U28A, U29A, C39U
B11: Id_ii_S2_P4E.3_K4.2_C4.2_[C-2T]_H4.2_A4.1_F4.1_T4.2_[T11C] (ssRNA)
RNA: B1 RNA with C39G, U40C
B12: Id_ii_S2_P4E.3_K4.2_C4.2_[C-2A]_H4.2_A4.1_F4.1_T4.2_[G10C] (ssRNA)
RNA: B1 RNA with U28A
B13: Id_ii_S2_P4E.3_K4.2_C4.2_[C-2A]_H4.2_A4.1_F4.1_T4.2_[G10A]_[T11C] (ssRNA)
RNA: B1 RNA with U28A, C39A, U40C
B14: Id_ii_S2_P4E.3_K4.2_C4.2_[C-2A]_[T-1C]_H4.2_A4.1_F4.1_T4.2_[G10A] (ssRNA)
RNA: B1 RNA with U28A, U29C, C39A
B15: Id_ii_S2_P4E.3_K4.2_C4.2_[T-1G]_H4.2_A4.1_F4.1_T4.2_[G10A]_[T11G] (ssRNA)
RNA: B1 RNA with U28C, U29G, C39A, U40G
B16: Id_ii_S2_P4E.3_K4.2_C4.2_[C-2A]_[T-1C]_H4.2_A4.1_F4.1_T4.2_[G10A]_[T11C] (ssRNA)
RNA: B1 RNA with U28A, U29C, C39A, U40C
B17: Id_ii_S2_P4E.3_K4.2_C4.2_[C-2A]_H4.2_A4.1_F4.1_T4.2_[G10C]_[T11G] (ssRNA)
RNA: B1 RNA with U28A, U40G
B18: Id_ii_S2_P4E.3_K4.2_C4.2_[C-2A]_[T-1A]_H4.2_A4.1_F4.1_T4.2_[G10A]_[T11A] (ssRNA)
RNA: B1 RNA with U28A, U29A, C39A, U40A
B19: Id_ii_S2_P4E.3_K4.2_C4.2_[C-2T]_H4.2_A4.1_F4.1_T4.2_[G10A]_[T11A] (ssRNA)
RNA: B1 RNA with C39A, U40A
B20: Id_ii_S2_P4E.3_K4.2_C4.2_[C-2A]_[T-1C]_H4.2_A4.1_F4.1_T4.2_[G10T]_[T11C] (ssRNA)
RNA: B1 RNA with U28A, U29C, C39U, U40C
B21: Id_ii_S2_P4E.3_K4.2_C4.2_[C-2A]_[T-1A]_H4.2_A4.1_F4.1_T4.2_[G10C]_[T11C] (ssRNA)
RNA: B1 RNA with U28A, U29A, U40C
B22: Id_ii_S2_P4E.3_K4.2_C4.2_[C-2A]_[T-1C]_H4.2_A4.1_F4.1_T4.2_[G10C]_[T11A] (ssRNA)
RNA: B1 RNA with U28A, U29C, U40A
B23: Id_ii_S2_P4E.3_K4.2_C4.2_[C-2T]_H4.2_A4.1_F4.1_T4.2 (ssRNA)
RNA: B1 RNA with C39G
B24: Id_ii_S2_P4E.3_K4.2_C4.2_[C-2A]_[T-1C]_H4.2_A4.1_F4.1_T4.2_[G10C] (ssRNA)
RNA: B1 RNA with U28A, U29C
B25: Id_ii_S2_P4E.3_K4.2_C4.2_[C-2A]_[T-1C]_H4.2_A4.1_F4.1_T4.2_[G10T] (ssRNA)
RNA: B1 RNA with U28A, U29C, C39U
B26: Id_ii_S2_P4E.3_K4.2_C4.2_[C-2A]_H4.2_A4.1_F4.1_T4.2_[G10T]_[T11G] (ssRNA)
RNA: B1 RNA with U28A, C39U, U40G
B27: Id_ii_S2_P4E.3_K4.2_C4.2_[C-2A]_[T-1C]_H4.2_A4.1_F4.1_T4.2_[G10A]_[T11A] (ssRNA)
RNA: B1 RNA with U28A, U29C, C39A, U40A
B28: Id_ii_S2_P4E.3_K4.2_C4.2_[C-2A]_[T-1C]_H4.2_A4.1_F4.1_T4.2_[G10T]_[T11G] (ssRNA)
RNA: B1 RNA with U28A, U29C, C39U, U40G
B29: Id_ii_S2_P4E.3_K4.2_C4.2_[C-2T]_H4.2_A4.1_F4.1_T4.2_[G10A]_[T11G] (ssRNA)
RNA: B1 RNA with C39A, U40G
B30: Id_ii_S2_P4E.3_K4.2_C4.2_[C-2T]_H4.2_A4.1_F4.1_T4.2_[G10T]_[T11C] (ssRNA)
RNA: B1 RNA with C39U, U40C
B31: Id_ii_S2_P4E.3_K4.2_C4.2_[C-2A]_[T-1A]_H4.2_A4.1_F4.1_T4.2_[G10C] (ssRNA)
RNA: B1 RNA with U28A, U29A
B32: Id_ii_S2_P4E.3_K4.2_C4.2_[C-2A]_H4.2_A4.1_F4.1_T4.2_[G10C]_[T11C] (ssRNA)
RNA: B1 RNA with U28A, U40C
B33: Id_ii_S2_P4E.3_K4.2_C4.2_[C-2T]_H4.2_A4.1_F4.1_T4.2_[G10T]_[T11A] (ssRNA)
RNA: B1 RNA with C39U, U40A
B34: Id_ii_S2_P4E.3_K4.2_C4.2_[C-2A]_[T-1C]_H4.2_A4.1_F4.1_T4.2_[G10C]_[T11G] (ssRNA)
RNA: B1 RNA with U28A, U29C, U40G
B35: Id_ii_S2_P4E.3_K4.2_C4.2_[C-2A]_[T-1A]_H4.2_A4.1_F4.1_T4.2_[G10C]_[T11A] (ssRNA)
RNA: B1 RNA with U28A, U29A, U40A
B36: Id_ii_S2_P4E.3_K4.2_C4.2_[T-1G]_H4.2_A4.1_F4.1_T4.2_[G10A]_[T11C] (ssRNA)
RNA: B1 RNA with U28C, U29G, C39A, U40C
B37: Id_ii_S2_P4E.3_K4.2_C4.2_[C-2T]_H4.2_A4.1_F4.1_T4.2_[G10A] (ssRNA)
RNA: B1 RNA with C39A

In general, Kd refers to the free concentration of one partner at which half of the binding sites on the other are occupied at equilibrium, for simple one-to-one binding.

In this series the target is T1, PUF4 RNA-binding domain. The series can be described thus: Mg; RNA-MaP; 20 mM Na-HEPES pH 7.4, 30 mM KOAc, 0.75 mM MgCl2, 0.1% Tween-20, 5% glycerol, 0.1 mg/mL BSA, 2 mM DTT; 25 C; 0.0125-409.6 nM protein. As to conditions: tags: N-His6-TEV cleaved; C-SNAP kept, Cy3B-labelled; label: tethered on chip by stalled RNA polymerase.
Turning to B1, the affinity, expressed as Kd, was 3.66 nM.

Consider B2, for which binding was characterised by a dissociation constant (Kd) of 661 nM.

Take B3: the Kd was determined as 284 nM.

B4 had a Kd of 12.2 nM.

In the case of B5, the affinity, expressed as Kd, was 6.27 nM.

For B6, binding was put at a Kd of 18.2 nM.

With B7, the affinity, expressed as Kd, was 8.87 nM.

As to B8, binding was put at a Kd of 135 nM.

On to B9, for which binding was characterised by a dissociation constant (Kd) of 7.25 nM.

Molecule B10 yielded a Kd of 214 nM.

In turn, B11 displayed a Kd of 5.53 nM.

Take B12: the Kd is 14.2 nM.

As to B13, the Kd is 40.9 nM.

As to B14, the affinity, expressed as Kd, was 14.7 nM.

The molecule B15 yielded a Kd of 266 nM.

B16 returned a Kd of 13.3 nM.

The molecule B17 returned a Kd of 25.3 nM.

Turning to B18, the Kd came to 233 nM.

As to B19, binding was put at a Kd of 141 nM.

As for B20, the Kd turned out to be 10.6 nM.

The molecule B21 yielded a dissociation constant Kd of 56.4 nM.

For B22, the Kd was found to be 16.8 nM.

Turning to B23, the Kd came out at 9.27 nM.

For B24, the Kd was 9.33 nM.

As to B25, the Kd was 7.44 nM.

The molecule B26 yielded a Kd of 26.1 nM.

Molecule B27 showed a dissociation constant Kd of 21.1 nM.

In turn, B28 came in with a Kd of 135 nM.

In turn, B29 had a Kd of 700 nM.

As to B30, the affinity, expressed as Kd, was 7.36 nM.

B31 returned a Kd of 35.9 nM.

Molecule B32 displayed a Kd of 12.8 nM.

B33 showed a Kd of 23.8 nM.

Molecule B34 had a Kd of 159 nM.

For the molecule B35, the affinity, expressed as Kd, was 160 nM.

With B36, binding was put at a Kd of 22.8 nM.

For the molecule B37, the Kd amounted to 17.3 nM.

With UCUCUUUGCAUUAUUCUCUCUU (ssRNA) [Ib_S1_P5E.1_K5.1_C5.1_H5.1_[T3C]_A5.1_F5.1_[A10C]_T5.1], the Kd is over 2300 nM.

As for UCUCUUUGUCUUAUUGUCUCUU (ssRNA) [Ib_S1_P5E.1_K5.1_C5.1_H5.1_[A4C]_A5.1_F5.1_[A10G]_T5.1], binding was put at a Kd of 840 nM.

As for UCUCUUUGUUUUAUUGUCUCUU (ssRNA) [Ib_S1_P5E.1_K5.1_C5.1_H5.1_[A4T]_A5.1_F5.1_[A10G]_T5.1], the Kd is 378 nM.

UCUCUUUGUGUUAUUGUCUCUU (ssRNA) [Ib_S1_P5E.1_K5.1_C5.1_H5.1_[A4G]_A5.1_F5.1_[A10G]_T5.1] registered a Kd of 382 nM.
